Our source for the Kd values is paper PMC7589614.

Series [1] concerns the target T1, tyrosinase (Bacillus megaterium (printed …, UniProt B2ZB02 1-297)).
T1 sequence: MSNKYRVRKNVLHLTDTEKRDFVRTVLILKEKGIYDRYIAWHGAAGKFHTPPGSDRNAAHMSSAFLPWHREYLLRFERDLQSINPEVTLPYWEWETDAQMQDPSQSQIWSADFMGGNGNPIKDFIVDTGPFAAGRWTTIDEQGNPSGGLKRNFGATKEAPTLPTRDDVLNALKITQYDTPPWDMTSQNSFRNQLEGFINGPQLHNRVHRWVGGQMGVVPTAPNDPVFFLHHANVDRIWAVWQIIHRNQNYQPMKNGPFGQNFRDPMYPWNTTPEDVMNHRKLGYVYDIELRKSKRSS
The series can be described thus: porous silicon RIFTS (EOT) biosensor; apparent, mass-transfer limited; Hill fit R2 0.9731; Selection buffers listed (assay buffer and temperature not stated in material): AGR2 137 mM NaCl, 20 mM KCl, 10 mM Na2HPO4, 2 mM KH2PO4 pH 7.4; 6H7 50 mM K2HPO4.

Series [2] deals with AGR2 (UniProt O95994 21-175). The experiment in a line: porous silicon RIFTS (EOT) biosensor; apparent, mass-transfer limited; Hill fit R2 0.9951; Selection buffers listed (assay buffer and temperature not stated in material): AGR2 137 mM NaCl, 20 mM KCl, 10 mM Na2HPO4, 2 mM KH2PO4 pH 7.4; 6H7 50 mM K2HPO4.
The target in series [3] is protein A (Staphylococcus aureus, UniProt P02976 37-485). The series can be described thus: porous silicon RIFTS (EOT) biosensor; apparent, mass-transfer limited; Hill fit R2 0.9177; Selection buffers listed (assay buffer and temperature not stated in material): AGR2 137 mM NaCl, 20 mM KCl, 10 mM Na2HPO4, 2 mM KH2PO4 pH 7.4; 6H7 50 mM K2HPO4.
protein A, sequence (P02976 37-485): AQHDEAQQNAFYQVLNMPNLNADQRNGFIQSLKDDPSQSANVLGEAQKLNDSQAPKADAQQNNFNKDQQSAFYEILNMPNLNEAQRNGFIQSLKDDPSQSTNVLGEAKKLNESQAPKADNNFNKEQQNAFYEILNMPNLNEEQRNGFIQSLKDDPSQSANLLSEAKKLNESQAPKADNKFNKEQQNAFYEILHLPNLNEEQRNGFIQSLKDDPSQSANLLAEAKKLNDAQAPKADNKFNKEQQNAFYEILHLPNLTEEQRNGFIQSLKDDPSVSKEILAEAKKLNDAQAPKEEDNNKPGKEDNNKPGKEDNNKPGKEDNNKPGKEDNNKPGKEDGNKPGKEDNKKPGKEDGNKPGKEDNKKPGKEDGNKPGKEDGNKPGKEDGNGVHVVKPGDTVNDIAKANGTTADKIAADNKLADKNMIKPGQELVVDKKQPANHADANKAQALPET

AGR2, sequence (O95994 21-175): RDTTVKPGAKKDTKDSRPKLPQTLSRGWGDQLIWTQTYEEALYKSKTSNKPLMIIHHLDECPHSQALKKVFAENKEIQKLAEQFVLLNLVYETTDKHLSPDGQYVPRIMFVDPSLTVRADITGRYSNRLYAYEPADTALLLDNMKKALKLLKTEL

B1: anti-his tag aptamer 6H7 (ssDNA)
DNA: GCTATGGGTGGTCTGGTTGGGATTGGCCCCGGGAGCTGGC
modifications: 5'-amino
In the case of B1, in series [1], the Kd is 31 ± 7 µM.

B2: anti-AGR2 aptamer (ssDNA)
DNA: TCTCGGACGCGTGTGGTCGGGTGGGAGTTGTGGGGGGGGGTGGGAGGGTT
modifications: 5'-amino
Consider B2, for which the Kd in series [2] turned out to be 21 ± 1 µM.

B3: anti-protein A aptamer PA#2/8[S1-58] (ssDNA)
DNA: ATACCAGCTTATTCAATTAGCAACATGAGGGGGATAGAGGGGGTGGGTTCTCTCGGCT
modifications: 3'-amino-C6
As for B3, the Kd in series [3] is 14 ± 1 µM.
